Laboratory results from publication doi:10.1101/2022.12.06.518574 (bioRxiv, 2022).
Changes are numbered by the printed parent chain.

B1: Sen[K252,255A] (enzyme, UniProt Q5XD01 1-435, looked up)
chain: MSIITDVYAREVLDSRGNPTLEVEVYTESGAFGRGMVPSGASTGEHEAVELRDGDKSRYLGLGTQKAVDNVNNIIAKAIIGYDVRDQQAIDRAMIALDGTPNKGKLGANAILGVSIAVARAAADYLEVPLYTYLGGFNTKVLPTPMMNIINGGSHSDAPIAFQEFMIMPVGAPTFKEGLRWGAEVFHALKKILKERGLVTAVGDEGGFAPKFEGTEDGVETILKAIEAAGYEAGENGIMIGFDCASSEFYDAERAVYDYTKFEGEGAAVRTSAEQVDYLEELVNKYPIITIEDGMDENDWDGWKVLTERLGKRVQLVGDDFFVTNTEYLARGIKENAANSILIKVNQIGTLTETFEAIEMAKEAGYTAVVSHRSGETEDSTIADIAVATNAGQIKTGSLSRTDRIAKYNQLLRIEDQLGEVAQYKGIKSFYNLKK
B2: Sen[K434,435A] (enzyme, UniProt Q5XD01 1-435, looked up)
chain: B1 chain with A252K, A255K, K434A, K435A
B3: Sen[K252,255,434,435A] (enzyme, UniProt Q5XD01 1-435, looked up)
chain: B1 chain with K434A, K435A

Target: the molecule itself
Test: AUC

Protein | stoichiometry N
B1 | 8
B2 | 8
B3 | 8

Target: the molecule itself
Test: AUC
Remark: another data set of the same source

Protein | percent as octamer [%]
B1 | ≥ 95
B2 | ≥ 95
B3 | ≥ 95
